Experimental data reported in publication PMC11046469, “Leveraging a Phage-Encoded Noncanonical Amino Acid: A Novel Pathway to Potent and Selective Epigenetic Reader Protein Inhibitors” (ACS Central Science, 2024).

Each substance was assayed against T1, ENL YEATS domain (AviSUMO-ENL YEATS) (Homo sapiens, UniProt Q03111) (assay: Phage panning of BuK-containing 7-mer library against AviSUMO-ENL YEATS with Illumina NGS abundance). Conditions: sheet ENLR3: round 3 of panning against ENL YEATS; TAG = amber codon (BuK); 7-mer library positions V1-V7.
T1 construct: encoding ENL YEATS (aa 1−148) was cloned in pET28a-; made in house; host or cells: E. coli BL21(DE3pLysS), co-expressed with BirA (pBirAcm)
T1 sequence (Q03111 1-148): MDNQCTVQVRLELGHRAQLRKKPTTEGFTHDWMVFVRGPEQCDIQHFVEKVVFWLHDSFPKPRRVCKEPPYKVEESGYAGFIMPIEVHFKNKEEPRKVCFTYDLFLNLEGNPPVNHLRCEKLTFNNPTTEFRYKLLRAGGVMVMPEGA
Description: We utilized a previously established amber-obligate 7-mer phage display library to develop a phage display library enriched with BuK-containing 7-mer peptides. For detailed characterizations, including analysis of amber codon percentages, NNK trinucleotide analysis, and amino acid distribution at each position within the library, please refer to the work of Tharp et al.[10] Furthermore, the comprehensive raw NGS data for the amber-obligate 7-mer phage library can be found in the NCBI’s Sequence Read Archive, under the accession ID PRJNA606283. To produce the BuK-containing 7-mer phage library, the phages were produced in the presence of 5 mM BuK using TOP10 cells harboring the following three plasmids: (1) pADL-gIII, which contains the 7-mer amber-obligate peptide-coding DNA library positioned at the N-terminus of M13 pIII gene; (2) pCDF-BuKRS, which encodes BuKRS and its cognate tRNA^Pyl for the genetic incorporation of BuK at amber codons in the 7-mer library; and (3) M13KO7TAA, a helper phage plasmid engineered to have a TAA mutation at pIII so that its lack of a functional pIII allows an efficient multivalent display of the 7-mer library. The ENL YEATS domain containing an N-terminal AviSUMO-Tag was recombinantly expressed in E. coli together with BirA, a biotin ligase, for site-specific biotinylation at the AviTag. The biotinylated AviSUMO-ENL YEATS was immobilized on streptavidin-coated magnetic beads for panning with the BuK-containing phages. […] Phage libraries collected from the first and third rounds of selection were sequenced using Illumina next generation sequencing (NGS) and all sequenced data are available through the NCBI SRA database (Project PRJNA1041845). To prevent possible sequencing errors from affecting conclusions, sequences were filtered using previously published paired-end processing,[10] where any sequences containing more than one mismatch in the nonlibrary region or any mismatch in the library region were discarded. The NGS data provided DNA sequences encompassing both the library and nonlibrary regions. In our analysis, we included data from the nonlibrary region as a stringent quality control measure to filter out low-quality data. For our analysis, we utilized 51 nucleotides from the NGS output, with 21 nucleotides encoding the library region and an additional 30 nucleotides for the nonlibrary region. […] Among all the sequences, only 85 of them contained more than 100 copies (blue area), while the remaining sequences all had low abundances (<10^2 copies, dark and light gray areas), which constituted 85.2% of the first round population. After three panning rounds, the selection converged to two highly enriched sequences: YDVYCYX (ENL-S1) and WWIIEXG (ENL-S2, X denotes BuK). Out of 551 different unique sequences collected from the third round, ENL-S1 and ENL-S2 represented 85% of the entire library (Figure 2A and Figures S6–S8). Both peptide sequences corresponded to their own unique DNA sequence, rather than there being varying codons encoding the same amino acids (Figure S7). […] Two motifs were found in the majority of sequences with high abundance (greater than 0.1%) (Figure S6). A Y(C/L)Y pattern was identified in the residues adjacent to BuK in four of the eight top sequences. Also, an H(L/Y)(T/V)LFXG (X denotes BuK) motif was observed, albeit at lower abundances, in two of the top sequences. In the initial round of selection, we observed that only a small percentage of phages were eluted, which aligns with typical outcomes in phage selection experiments since only a low copy number of phages can bind to the target.[10],[45] With each successive round of selection, we noted a gradual increase in the percentage of phages eluted. This incremental, rather than sharp, increase was attributed to the intensification of selection pressures, such as the application of more stringent washing protocols. We aimed for the incremental increase to retain potent clones with low copy numbers from the previous selection cycle. […]

Row | Substance | n (number of NGS reads of the unique amino acid sequence) | percent (share of sequence reads) [%]
1 | WCGPRTAGD | 2 | 0.001821
2 | ILIYTAGGD | 4 | 0.003642
3 | LTAGSSASG | 1 | 0.0009106
4 | WCIIETAGG | 19 | 0.0173
5 | WWIIETAGD | 23 | 0.02094
6 | WWIIETAGV | 16 | 0.01457
7 | YGVYCYTAG | 13 | 0.01184
8 | WTVYCYTAG | 3 | 0.002732
9 | FTWSTAGED | 1 | 0.0009106
10 | HAIYFYTAG | 1 | 0.0009106
11 | TAIFCYTAG | 3 | 0.002732
12 | YDFYCYTAG | 51 | 0.04644
13 | QFGPRTAGD | 6 | 0.005464
14 | TAGVMSLYS | 2 | 0.001821
15 | WSIIETAGG | 3 | 0.002732
16 | YDVYCYW | 26 | 0.02368
17 | LNAEFTAGA | 1 | 0.0009106
18 | LLAFLWL | 1 | 0.0009106
19 | FLFDTTAGT | 1 | 0.0009106
20 | KVTAGGGGV | 1 | 0.0009106
21 | HSTLFTAGG | 2 | 0.001821
22 | CPCWTAGLL | 1 | 0.0009106

Row | Substance | n (number of NGS reads of the unique amino acid sequence) | percent (share of sequence reads) [%]
23 | KMPFTAGIS | 1 | 0.0009106
24 | WWIIVTAGG | 4 | 0.003642
25 | ILATAGSVN | 1 | 0.0009106
26 | CYVCRFL | 1 | 0.0009106
27 | HLTLFTAGC | 2 | 0.001821
28 | YDVYCCTAG | 5 | 0.004553
29 | LTAGTVLDP | 1 | 0.0009106
30 | LTCYCYTAG | 39 | 0.03551
31 | LTAGMPRSF | 1 | 0.0009106
32 | MTAGGLRHS | 1 | 0.0009106
33 | CYDLCTAGG | 21 | 0.01912
34 | HTRSMTAGN | 1 | 0.0009106
35 | HIKCTAGII | 1 | 0.0009106
36 | FTAGIYTAA | 1 | 0.0009106
37 | FLTRCML | 1 | 0.0009106
38 | HAIYCYTAG | 759 | 0.6912
39 | WWVIETAGG | 4 | 0.003642
40 | HLNLFTAGG | 2 | 0.001821
41 | YDVYYYTAG | 7 | 0.006374
42 | WNCLYTAGD | 4 | 0.003642
43 | CWSTAGNGD | 1 | 0.0009106

Same assay, conditions: sheet ENLR3: round 3 of selection against ENL YEATS; TAG = amber codon (BuK)

Row | Substance | n (number of NGS reads of the 7-mer sequence V1-V7) | percent (share of NGS reads of the 7-mer sequence V1-V7) [%]
44 | YLYTAGAPC | 1 | 0.0009106
45 | TAGVFALVI | 1 | 0.0009106
46 | RTVYCHTAG | 1 | 0.0009106
47 | YLDDTAGLH | 1 | 0.0009106
48 | QCGPWTAGG | 1 | 0.0009106
49 | YDVYCYK | 1 | 0.0009106
50 | RCGPRTAGD | 1 | 0.0009106
51 | YRWVFSF | 1 | 0.0009106
52 | RTAGTESQL | 1 | 0.0009106
53 | YPCVCFTAG | 1 | 0.0009106
54 | SMMTAGSST | 1 | 0.0009106
55 | RLTLFTAGG | 1 | 0.0009106
56 | TAGSSIITC | 1 | 0.0009106
57 | QCDPRTAGD | 1 | 0.0009106
58 | QTAGERNAC | 1 | 0.0009106
59 | QCSPRTAGD | 1 | 0.0009106
60 | SAVVATAGG | 1 | 0.0009106
61 | YLTLFTAGG | 1 | 0.0009106
62 | STTAGKLFI | 1 | 0.0009106
63 | YVCPWTAGG | 1 | 0.0009106
64 | TAGAFFCIL | 1 | 0.0009106
65 | YDGYCYTAG | 1 | 0.0009106
66 | WLAWRHL | 1 | 0.0009106
67 | WWVLVTAGS | 1 | 0.0009106
68 | YDVYCYE | 1 | 0.0009106
